# Results reported in PMC12313940, “Insights into a water-mediated catalytic triad architecture in CE20 carbohydrate esterases” (Nature Communications, 2025).
# How the values were obtained:
# Fl8CE20_II [1] = target: T1, Fl8CE20_II (Salinimicrobium marinum, UniProt A0A918SDW1, K371M); assay: p-nitrophenol release, absorbance […] nm, Michaelis-Menten fit; format: biochemical; details: 50 mM Tris-HCl pH 8.0, 100 mM NaCl, 5% DMSO, room temperature
# T1 construct: gene GCM10007103_17970; pET28a(+), N-terminal 6xHis tag, expressed in E. coli BL21(DE3), SGNH hydrolase with inserted ancillary domain
# T1 sequence (A0A918SDW1 entry or part of it K371M): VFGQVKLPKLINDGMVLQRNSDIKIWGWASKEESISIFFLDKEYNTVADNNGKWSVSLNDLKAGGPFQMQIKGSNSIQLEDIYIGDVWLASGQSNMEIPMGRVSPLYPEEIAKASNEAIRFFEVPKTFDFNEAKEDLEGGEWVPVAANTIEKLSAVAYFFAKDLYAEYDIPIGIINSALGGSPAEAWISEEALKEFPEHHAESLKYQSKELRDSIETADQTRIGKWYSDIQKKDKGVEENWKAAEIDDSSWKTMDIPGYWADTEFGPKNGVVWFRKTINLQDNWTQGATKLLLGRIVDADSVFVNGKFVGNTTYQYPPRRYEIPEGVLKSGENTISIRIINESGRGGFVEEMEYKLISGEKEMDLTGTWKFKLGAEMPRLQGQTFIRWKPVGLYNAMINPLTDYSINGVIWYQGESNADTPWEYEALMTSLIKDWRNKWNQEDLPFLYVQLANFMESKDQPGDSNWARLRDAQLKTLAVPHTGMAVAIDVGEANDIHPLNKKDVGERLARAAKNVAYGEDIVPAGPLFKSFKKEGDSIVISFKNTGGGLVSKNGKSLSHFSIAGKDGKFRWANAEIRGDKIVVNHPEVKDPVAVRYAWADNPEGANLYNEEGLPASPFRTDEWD
# Fl8CE20_II [2] = target: T2, Fl8CE20_II (Salinimicrobium marinum, UniProt A0A918SDW1, Y335N); assay: as above; format: biochemical; details: 50 mM Tris-HCl pH 8.0, 100 mM NaCl, 5% DMSO, room temperature
# T2 construct: gene GCM10007103_17970; pET28a(+), N-terminal 6xHis tag, expressed in E. coli BL21(DE3), SGNH hydrolase with inserted ancillary domain
# T2 sequence (A0A918SDW1 entry or part of it Y335N): as the sequence (A0A918SDW1 entry or part of it K371M) above, with Y316N, M352K counted along it
# PpCE20_II = target: T3, PpCE20_II (Pedobacter psychrotolerans, UniProt A0A4R2HIK5); assay: p-nitrophenolate release, stopped with acetonitrile, […] nm; format: biochemical; details: preferred temperature and pH of the enzyme
# T3 construct: gene EV200_102244; catalytic residues Ser114, Asp518, His520
# T3 sequence (A0A4R2HIK5 entry or part of it): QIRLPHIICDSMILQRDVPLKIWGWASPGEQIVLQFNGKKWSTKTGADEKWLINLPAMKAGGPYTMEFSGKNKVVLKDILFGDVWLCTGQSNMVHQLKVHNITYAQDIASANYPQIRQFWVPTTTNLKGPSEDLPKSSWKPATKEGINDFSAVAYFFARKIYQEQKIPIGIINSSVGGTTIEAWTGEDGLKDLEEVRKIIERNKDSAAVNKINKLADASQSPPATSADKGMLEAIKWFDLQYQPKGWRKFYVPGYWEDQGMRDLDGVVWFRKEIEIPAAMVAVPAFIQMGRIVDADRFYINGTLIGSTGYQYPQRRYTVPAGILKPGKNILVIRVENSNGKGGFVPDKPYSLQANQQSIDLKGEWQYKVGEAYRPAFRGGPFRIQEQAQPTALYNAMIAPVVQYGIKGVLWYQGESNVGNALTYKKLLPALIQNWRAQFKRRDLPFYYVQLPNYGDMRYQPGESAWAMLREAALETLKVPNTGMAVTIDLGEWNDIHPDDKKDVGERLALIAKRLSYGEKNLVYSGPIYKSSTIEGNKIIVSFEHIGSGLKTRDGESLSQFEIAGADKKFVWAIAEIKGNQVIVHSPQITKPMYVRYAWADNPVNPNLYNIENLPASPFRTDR
# purified protein = substrate: CC(=O)Oc1ccc([N+](=O)[O-])cc1; assay: purified protein; format: biochemical, Salinimicrobium marinum; details: 50 mM Tris-HCl pH 8.0, 100 mM NaCl, 5% DMSO, room temperature
Molecule,KM (Fl8CE20_II [1]),KM (Fl8CE20_II [2]),KM (PpCE20_II),Km (purified protein) [µM],kcat (purified protein) [s⁻¹]
CC(=O)Oc1ccc([N+](=O)[O-])cc1 [pNP-acetate],slight reduction of kcat while showing the same KM as the mutant D513N,mutation of Tyr334 to Asn in the ancillary domain resulted in a decrease in kcat,"In terms of biochemical and kinetic behaviour, all enzymes showed similar properties",–,–
"Fl8CE20_II (Salinimicrobium marinum) (protein, pET28a(+), N-terminal 6xHis tag, expressed in E. coli BL21(DE3), SGNH hydrolase with inserted ancillary domain) VFGQVKLPKLINDGMVLQRNSDIKIWGWASKEESISIFFLDKEYNTVADNNGKWSVSLNDLKAGGPFQMQIKGSNSIQLEDIYIGDVWLASGQSNMEIPMGRVSPLYPEEIAKASNEAIRFFEVPKTFDFNEAKEDLEGGEWVPVAANTIEKLSAVAYFFAKDLYAEYDIPIGIINSALGGSPAEAWISEEALKEFPEHHAESLKYQSKELRDSIETADQTRIGKWYSDIQKKDKGVEENWKAAEIDDSSWKTMDIPGYWADTEFGPKNGVVWFRKTINLQDNWTQGATKLLLGRIVDADSVFVNGKFVGNTTYQYPPRRYEIPEGVLKSGENTISIRIINESGRGGFVEEKEYKLISGEKEMDLTGTWKFKLGAEMPRLQGQTFIRWKPVGLYNAMINPLTDYSINGVIWYQGESNADTPWEYEALMTSLIKDWRNKWNQEDLPFLYVQLANFMESKDQPGDSNWARLRDAQLKTLAVPHTGMAVAIDVGEANDIHPLNKKDVGERLARAAKNVAYGEDIVPAGPLFKSFKKEGDSIVISFKNTGGGLVSKNGKSLSHFSIAGKDGKFRWANAEIRGDKIVVNHPEVKDPVAVRYAWADNPEGANLYNEEGLPASPFRTDEWD",–,–,–,620,9.70
"Fl8CE20_II (Salinimicrobium marinum; R314Q) (protein, pET28a(+), N-terminal 6xHis tag, expressed in E. coli BL21(DE3), SGNH hydrolase with inserted ancillary domain) VFGQVKLPKLINDGMVLQRNSDIKIWGWASKEESISIFFLDKEYNTVADNNGKWSVSLNDLKAGGPFQMQIKGSNSIQLEDIYIGDVWLASGQSNMEIPMGRVSPLYPEEIAKASNEAIRFFEVPKTFDFNEAKEDLEGGEWVPVAANTIEKLSAVAYFFAKDLYAEYDIPIGIINSALGGSPAEAWISEEALKEFPEHHAESLKYQSKELRDSIETADQTRIGKWYSDIQKKDKGVEENWKAAEIDDSSWKTMDIPGYWADTEFGPKNGVVWFRKTINLQDNWTQGATKLLLGQIVDADSVFVNGKFVGNTTYQYPPRRYEIPEGVLKSGENTISIRIINESGRGGFVEEKEYKLISGEKEMDLTGTWKFKLGAEMPRLQGQTFIRWKPVGLYNAMINPLTDYSINGVIWYQGESNADTPWEYEALMTSLIKDWRNKWNQEDLPFLYVQLANFMESKDQPGDSNWARLRDAQLKTLAVPHTGMAVAIDVGEANDIHPLNKKDVGERLARAAKNVAYGEDIVPAGPLFKSFKKEGDSIVISFKNTGGGLVSKNGKSLSHFSIAGKDGKFRWANAEIRGDKIVVNHPEVKDPVAVRYAWADNPEGANLYNEEGLPASPFRTDEWD",–,–,–,40,1.3
"Fl8CE20_II (Salinimicrobium marinum; R314E) (protein, pET28a(+), N-terminal 6xHis tag, expressed in E. coli BL21(DE3), SGNH hydrolase with inserted ancillary domain) VFGQVKLPKLINDGMVLQRNSDIKIWGWASKEESISIFFLDKEYNTVADNNGKWSVSLNDLKAGGPFQMQIKGSNSIQLEDIYIGDVWLASGQSNMEIPMGRVSPLYPEEIAKASNEAIRFFEVPKTFDFNEAKEDLEGGEWVPVAANTIEKLSAVAYFFAKDLYAEYDIPIGIINSALGGSPAEAWISEEALKEFPEHHAESLKYQSKELRDSIETADQTRIGKWYSDIQKKDKGVEENWKAAEIDDSSWKTMDIPGYWADTEFGPKNGVVWFRKTINLQDNWTQGATKLLLGEIVDADSVFVNGKFVGNTTYQYPPRRYEIPEGVLKSGENTISIRIINESGRGGFVEEKEYKLISGEKEMDLTGTWKFKLGAEMPRLQGQTFIRWKPVGLYNAMINPLTDYSINGVIWYQGESNADTPWEYEALMTSLIKDWRNKWNQEDLPFLYVQLANFMESKDQPGDSNWARLRDAQLKTLAVPHTGMAVAIDVGEANDIHPLNKKDVGERLARAAKNVAYGEDIVPAGPLFKSFKKEGDSIVISFKNTGGGLVSKNGKSLSHFSIAGKDGKFRWANAEIRGDKIVVNHPEVKDPVAVRYAWADNPEGANLYNEEGLPASPFRTDEWD",–,–,–,300,4.67
"Fl8CE20_II (Salinimicrobium marinum; D514E) (protein, pET28a(+), N-terminal 6xHis tag, expressed in E. coli BL21(DE3), SGNH hydrolase with inserted ancillary domain) VFGQVKLPKLINDGMVLQRNSDIKIWGWASKEESISIFFLDKEYNTVADNNGKWSVSLNDLKAGGPFQMQIKGSNSIQLEDIYIGDVWLASGQSNMEIPMGRVSPLYPEEIAKASNEAIRFFEVPKTFDFNEAKEDLEGGEWVPVAANTIEKLSAVAYFFAKDLYAEYDIPIGIINSALGGSPAEAWISEEALKEFPEHHAESLKYQSKELRDSIETADQTRIGKWYSDIQKKDKGVEENWKAAEIDDSSWKTMDIPGYWADTEFGPKNGVVWFRKTINLQDNWTQGATKLLLGRIVDADSVFVNGKFVGNTTYQYPPRRYEIPEGVLKSGENTISIRIINESGRGGFVEEKEYKLISGEKEMDLTGTWKFKLGAEMPRLQGQTFIRWKPVGLYNAMINPLTDYSINGVIWYQGESNADTPWEYEALMTSLIKDWRNKWNQEDLPFLYVQLANFMESKDQPGDSNWARLRDAQLKTLAVPHTGMAVAIDVGEANEIHPLNKKDVGERLARAAKNVAYGEDIVPAGPLFKSFKKEGDSIVISFKNTGGGLVSKNGKSLSHFSIAGKDGKFRWANAEIRGDKIVVNHPEVKDPVAVRYAWADNPEGANLYNEEGLPASPFRTDEWD",–,–,–,2300,0.43
"Fl8CE20_II (Salinimicrobium marinum; D514Q) (protein, pET28a(+), N-terminal 6xHis tag, expressed in E. coli BL21(DE3), SGNH hydrolase with inserted ancillary domain) VFGQVKLPKLINDGMVLQRNSDIKIWGWASKEESISIFFLDKEYNTVADNNGKWSVSLNDLKAGGPFQMQIKGSNSIQLEDIYIGDVWLASGQSNMEIPMGRVSPLYPEEIAKASNEAIRFFEVPKTFDFNEAKEDLEGGEWVPVAANTIEKLSAVAYFFAKDLYAEYDIPIGIINSALGGSPAEAWISEEALKEFPEHHAESLKYQSKELRDSIETADQTRIGKWYSDIQKKDKGVEENWKAAEIDDSSWKTMDIPGYWADTEFGPKNGVVWFRKTINLQDNWTQGATKLLLGRIVDADSVFVNGKFVGNTTYQYPPRRYEIPEGVLKSGENTISIRIINESGRGGFVEEKEYKLISGEKEMDLTGTWKFKLGAEMPRLQGQTFIRWKPVGLYNAMINPLTDYSINGVIWYQGESNADTPWEYEALMTSLIKDWRNKWNQEDLPFLYVQLANFMESKDQPGDSNWARLRDAQLKTLAVPHTGMAVAIDVGEANQIHPLNKKDVGERLARAAKNVAYGEDIVPAGPLFKSFKKEGDSIVISFKNTGGGLVSKNGKSLSHFSIAGKDGKFRWANAEIRGDKIVVNHPEVKDPVAVRYAWADNPEGANLYNEEGLPASPFRTDEWD",–,–,–,9890,0.18
"Fl8CE20_II (Salinimicrobium marinum; S435A) (protein, pET28a(+), N-terminal 6xHis tag, expressed in E. coli BL21(DE3), SGNH hydrolase with inserted ancillary domain) VFGQVKLPKLINDGMVLQRNSDIKIWGWASKEESISIFFLDKEYNTVADNNGKWSVSLNDLKAGGPFQMQIKGSNSIQLEDIYIGDVWLASGQSNMEIPMGRVSPLYPEEIAKASNEAIRFFEVPKTFDFNEAKEDLEGGEWVPVAANTIEKLSAVAYFFAKDLYAEYDIPIGIINSALGGSPAEAWISEEALKEFPEHHAESLKYQSKELRDSIETADQTRIGKWYSDIQKKDKGVEENWKAAEIDDSSWKTMDIPGYWADTEFGPKNGVVWFRKTINLQDNWTQGATKLLLGRIVDADSVFVNGKFVGNTTYQYPPRRYEIPEGVLKSGENTISIRIINESGRGGFVEEKEYKLISGEKEMDLTGTWKFKLGAEMPRLQGQTFIRWKPVGLYNAMINPLTDYSINGVIWYQGEANADTPWEYEALMTSLIKDWRNKWNQEDLPFLYVQLANFMESKDQPGDSNWARLRDAQLKTLAVPHTGMAVAIDVGEANDIHPLNKKDVGERLARAAKNVAYGEDIVPAGPLFKSFKKEGDSIVISFKNTGGGLVSKNGKSLSHFSIAGKDGKFRWANAEIRGDKIVVNHPEVKDPVAVRYAWADNPEGANLYNEEGLPASPFRTDEWD",–,–,–,210,4.48
